According to publication PMC10174515:

Substrate: O=C(O)C(=O)O
Test: purified protein
Details: pH 3.1, 37 °C, MBTH 0.11 mM, DMAB 1.6 mM, HRP 0.1 U/ml, potassium oxalate, concentrations up to 400 uM, substrate (product) inhibition data excluded

B1: barley oxalate oxidase (OxOx) (Hordeum vulgare) (protein)
chain: SDPDPLQDFCVADLDGKAVSVNGHTCKPMSEAGDDFLFSSKLTKAGNTSTPNGSAVTELDVAEWPGTNTLGVSMNRVDFAPGGTNPPHIHPRATEIGMVMKGELLVGILGSLDSGNKLYSRVVRAGETFVIPRGLMHFQFNVGKTEAYMVVSFNSQNPGIVFVPLTLFGSDPPIPTPVLTKALRVEAGVVELLKSKFAGGS
Km: 256 µM
